T1: human CD58 (Homo sapiens, UniProt P19256)
T1 construct: expressed in transfected cells; host or cells: K562 (electroporated) or Rat2 (lipofected) cells
T1 sequence (P19256 29-250): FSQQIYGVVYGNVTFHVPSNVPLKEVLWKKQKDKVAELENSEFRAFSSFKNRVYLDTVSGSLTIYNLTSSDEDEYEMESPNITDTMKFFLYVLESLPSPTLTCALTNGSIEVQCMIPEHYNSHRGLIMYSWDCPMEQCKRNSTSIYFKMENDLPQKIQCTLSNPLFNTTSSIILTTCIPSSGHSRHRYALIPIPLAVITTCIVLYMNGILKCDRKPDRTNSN

B1: CD2z CSR: chimeric stimulatory receptor: CD2 signal peptide, extracellular, transmembrane and cytoplasmic domains with CD3z intracellular domain (SEQ ID NO: 17062) (protein)
chain: MSFPCKFVASFLLIFNVSSKGAVSKEITNALETWGALGQDINLDIPSFQMSDDIDDIKWEKTSDKKKIAQFRKEKETFKEKDTYKLFKNGTLKIKHLKTDDQDIYKVSIYDTKGKNVLEKIFDLKIQERVSKPKISWTCINTTLTCEVMNGTDPELNLYQDGKHLKLSQRVITHKWTTSLSAKFKCTAGNKVSKESSVEPVSCPEKGLDIYLIIGICGGGSLLMVFVALLVFYITKRKKQRSRRNDEELETRAHRVATEERGRKPHQIPASTPQNPATSQHPPPPPGHRSQAPSHRPPPPGHRVQHQPQKRPPAPSGTQVHQQKGPPLPRPRVQPKPPHGAAENSLSPSSNRVKFSRSADAPAYKQGQNQLYNELNLGRREEYDVLDKRRGRDPEMGGKPRRKNPQEGLYNELQKDKMAEAYSEIGMKGERRRGKGHDGLYQGLSTATKDTYDALHMQALPPR

Columns and labels:
[1] = tested on: DKO CAR-T cells; assay: Expansion of TCRb/b2M double-knockout (DKO) CAR-T cells after stimulation with agonist mAbs anti-CD2, anti-CD3 and anti-CD28; type: cell-based, human; conditions: 16 day culture; CSR delivered in piggyBac transposon
Source text: FIGS. 9A-9B are a series of plots showing that piggyBac® delivery of CSR enhances the expansion of TCRb/b2M double-knockout CAR-T cells. Pan T cells isolated from normal donor blood were genetically modified using the piggyBac® DNA modification system in combination with the Cas-CLOVER™ gene-editing system. Cells were electroporated in a single reaction with a transposon encoding a CAR, selection gene and a CSR (either CD28z or CD2z), an mRNA encoding the super piggyBac™ transposase enzyme, an mRNA encoding Cas-CLOVER™, and multiple guide RNA (gRNA) targeting TCRb and b2M in order to knockout the TCR and MHCI (double-knockout; DKO). The cells were subsequently stimulated with agonist mAbs anti-CD2, anti-CD3 and anti-CD28, and were later selected for genetic modification over the course of a 16 day culture period. At the end of the initial culture period all T cells expressed the CAR, indicating successful selection for genetically-modified cells (data not shown).

[2] = tested on: CAR-T cells; assay: Expansion of CAR-T cells with CSR delivered transiently by mRNA or stably by piggyBac; type: cell-based, human; conditions: for expansion of CAR-T cells (total live CAR-T cells): 19 day culture, BCMA CAR, CSR transient or stable
Source text: FIG. 18 is a graph showing that delivery of CSR enhances the expansion of CAR-T cells. CSRs were delivered to CAR-T cells either transiently by mRNA or stably by piggyBac®. Pan T cells isolated from the blood of a normal donor were genetically modified using the piggyBac® DNA modification system and the standard Poseida process. Cells were co-electroporated in a single reaction with mRNA encoding the Super piggyBac™ transposase enzyme (SPB), a transposon encoding a BCMA CAR and selection gene, along with an additional mRNA encoding a CSR (either CD28z or CD2z; resulting in transient expression) or a CD19 mRNA control, or, with a transposon encoding a BCMA CAR, selection gene and a CSR (either CD28z or CD2z; resulting in stable expression). The cells were subsequently stimulated with agonist mAbs anti-CD2, anti-CD3 and anti-CD28, and were later selected for genetic modification over the course of a 19 day culture period. At the end of the initial culture period all T cells expressed the CAR, indicating successful selection for genetically-modified cells (data not shown). Bars represent total live CAR-T cells in well and numbers indicate fold-enhancement of expansion above CAR-T cells produced in the absence of a CSR or a CD19 mRNA control.
Pan T cells isolated from healthy donor blood were genetically modified using the piggyBac® DNA modification system in combination with the Cas-CLOVER™ gene-editing system (CC) for the production of allogeneic (Allo) CAR-T cells, or without CC gene-editing for the production of autologous (Auto) CAR-T cells; auto CAR-T cells were produced by nucleofection of an mRNA encoding the super piggyBac® transposase enzyme (SPB) and a transposon encoding a CAR, selection gene and a safety switch. […] Following EP, all cells were subsequently stimulated with a cocktail of agonist mAbs anti-CD2, anti-CD3 and anti-CD28, and were later selected for genetic modification over the course of a 19-day culture period using the selection gene. […]

[3] = target: T1, human CD58; assay: T cell degranulation (CD107a) against CD58-positive cell targets; type: cell-based; conditions: 4-6 hours coculture; K562 or Rat2 cells with mRNA encoding human CD58
Protocol: FIG. 23B is a series of bar graphs showing CSR CD2z mutant degranulation data. The panel of CSR CD2z mutants was tested for the capability of mediating degranulation against CD58-positive cell targets. T cell degranulation is a surrogate of T cell killing that can be measured by FACS staining for intracellular CD107a expression following coculture with target cell lines expressing target antigen. Specifically, pan T cells from normal blood donors were stimulated with anti-CD3/anti-CD28 beads in standard T cell culture media, then rested. These cells were then electroporated (BTX ECM 830 electroporator @ 500V for 700 μs) with 9 μg of mRNA expressing CSR CD2z mutants and cultured overnight. The next day, the cells were cocultured for 4-6 hours in the presence of various target cell lines. Positive target cell lines included K562 cells or Rat2 cells that were electroporated or lipofected, respectively, with mRNA encoding human CD58, while negative controls were either Rat2 cells that were not electroporated or CSR CD2z mutant expressing T cells alone.
FIG. 23C is a summary of staining and degranulation data. Data from surface-expression and binding studies, as well as those from degranulation experiments for each CSR CD2z mutant is summarized in the table.
FIG. 23D is a series of flow cytometry plots showing the expression of CD48, CD58 or CD59 on K562 and Rat2 cells. To confirm possible ligands for the CSR WT CD2z molecule, a panel of known and suspected ligands including human CD48, CD58, and CD59 were tested. Degranulation of engineered T cells was evaluated against the cell lines K562 and Rat2 that were made to overexpress the target ligands and confirmed for expression by FACS staining. Red histograms are unstained cells and blue histograms are cells that were electroporated/lipofected with mRNA and then stained for expression of the respective marker by FACS.
FIG. 23E is a bar graph showing that CSR CD2z recognizes human CD58, but not CD48 or CD59. To confirm possible ligands for the CSR WT CD2z molecule, a panel of known and suspected ligands including human CD48, CD58, and CD59 were tested. Degranulation of engineered T cells was evaluated against the cell lines K562 and Rat2 that were made to overexpress the target ligands and confirmed for expression by FACS staining. Cells were electroporated/lipofected with mRNA and then stained for expression of the respective marker by FACS. As a control, a BCMA CAR was included as well as a K562 cell line overexpressing BCMA. In addition, T cells transfected with GFP were also included as a control. T cell degranulation is a surrogate of T cell killing that can be measured by FACS staining for intracellular CD107a expression following coculture with target cell lines expressing target antigen. Pan T cells from normal blood donors were stimulated with anti-CD3/anti-CD28 beads in standard T cell culture media, then rested. These T cells were then electroporated with mRNA expressing CSR WT CD2z, BCMA CAR, or GFP and cultured overnight. The next day, the cells were cocultured for 4-6 hours in the presence of the various target cell lines that were electroporate/lipofected with mRNA encoding human CD48, CD58 or CD59, while negative controls were either K562 or Rat2 cells that were not electroporated/lipofected, or each of the electroporated T cells alone.

| Molecule | expansion of the cells in comparison to DKO CAR-T cells alone [1] | expansion of CAR-T cells (total live CAR-T cells) [2] | expansion of CAR-T cells compared to CAR-T cells produced without a CSR ([2]; 19-day culture, Auto and Allo CAR-T, CSR stable or mRNA 5, 10, 20 μg) | degranulation (CD107a) against CD58 [3] |
| --- | --- | --- | --- | --- |
| CD28z CSR: chimeric stimulatory receptor: CD28 signal peptide, extracellular, transmembrane and cytoplasmic domains with CD3z intracellular domain (SEQ ID NO: 17060) | at least a two fold expansion | a greater degree of expansion |  |  |
| B1 | at least a two fold expansion | a greater degree of expansion | a greater degree of expansion | capable of degranulating at levels above background |

— US20220389077A1, “ALLOGENEIC CELL COMPOSITIONS AND METHODS OF USE” (Poseida Therapeutics, Inc., priority 2018, published 2022)
